Measured values as given in publication PMC9038728, “Development of broadly neutralizing antibodies targeting the cytomegalovirus subdominant antigen gH” (Communications Biology, 2022).

Molecular target: T1, HCMV gH/gL complex expressed in U373 astrocytoma cells (Human cytomegalovirus (HHV-5), strain …, UniProt P12824;P16832)
T1 construct: Human cytomegalovirus envelope glycoprotein H (gH); Human cytomegalovirus envelope glycoprotein L (gL); The immunisation plasmid and the peptide array used TB40/E gH, but no strain is named for the U373 cells; also called gH/gL-dimer; U373-gH/gL
Test: flow cytometry on cells; Competition of the anti-gH mAbs with MSL-109. The set-up for MSL-109 is not told. The competition assay in the methods uses fixed, permeabilised U373-gH/gL cells, AF647-labelled antibody plus unlabelled antibody, 4 °C, 1 h.
Details: one partner purified

B1: MSL-109 (antibody, V domains shown)
VH: EEQVLESGGGLVKPGGSLRLSCAASGFTFSPYSVFWVRQAPGKGLEWVSSINSDSTYKYYADSVKGRFTISRDNAENSIFLQMNSLRAEDTAVYYCARDRSYYAFSSGSLSDYYYGLDVWGQGTLVTVSS
VL: DIVMTQSPLSLSVTPGEPASISCRSSQSLLHTNGYNYLDWYVQKPGQSPQLLIYLASNRASGVPDRFSGSGSGTDFTLKISRVETEDVGVYYCMQALQIPRTFGQGTKVEIK
notes: Human IgG1 constant region from the pFuse vector (InvivoGen); Human kappa constant region from the pFuse vector (InvivoGen); Human IgG1 kappa; source: HEK-293, heavy and light chain co-transfected, purified from the cell supernatant
binding result: binds
